Assay results as given in PMC4748810, “Structural basis for the endoribonuclease activity of the type III-A CRISPR-associated protein Csm6” (RNA, 2016).
Positions count from the first letter of the chain named. In names and notes the source's numbering stands.

Target: the molecule itself
Assay: SEC; size-exclusion chromatography of purified proteins (Supplemental Fig. 3); the purification used Superdex 200 (26/600) in 20 mM HEPES 7.5, 500 mM KCl

B1: Thermus thermophilus Csm6 (enzyme, UniProt Q53W17 1-464, looked up)
chain: MEDLDALWERYREAVRAGGNPQALYQEMVWPALLALWREKPRVYPFPQAFAVSVHTLGTSPEATALAILGAGAERVYVLHTPESARFLPRLRQDTGKDLYPVEIGKSDVEAIYREVKRLLEKHPEVPVALDLTSGTKAMSAGLAAAGFFFQRFYPKVRVVYVDNEDYDPELRRPRAGTEKLRILPNPHEALAEVDALFAKELYGKGEFGQAAAYFRGMVGRTGNQAYALYALLAEMYRAWRALDFGEALKAGRKLLGQLSQNVWLNHPLNARREALEAQVALLEAVDRFLKARDFALKEGVYGLARTLLHLAQEAKEEAAVLAALYAYRALELLLQERLALLGRRAEAPGLSPEEAEALRKALAELLGVLPEEVRLPAKLGLLDLLAFLRLKGDEALGRLSLAELRGLAGALKGRNSALLVHGFDVPSPKAVEGIARLAQGLLQDLEARTALGPLSPEPVPLGF
notes: amplified from genomic DNA; Homodimer in the crystal and in solution; also called TtCsm6; TTHB152; not shown: His6, N-terminal, cleaved
B1 was tested, and the “stoichiometry N” value was 2.

B2: TtCsm6 with Asn416 substituted by alanine (enzyme, Thermus thermophilus, UniProt Q53W17 1-464, looked up)
chain: B1 chain with N416A
notes: also called N416A; not shown: His6, N-terminal, cleaved
With B2 the “stoichiometry N” value was 2.

B3: TtCsm6 with His422 substituted by alanine (enzyme, Thermus thermophilus, UniProt Q53W17 1-464, looked up)
chain: B1 chain with H422A
notes: also called H422A; not shown: His6, N-terminal, cleaved
With B3 the “stoichiometry N” value was 2.

B4: TtCsm6 with Glu332 substituted by alanine (enzyme, Thermus thermophilus, UniProt Q53W17 1-464, looked up)
chain: B1 chain with E332A
notes: also called E332A; not shown: His6, N-terminal, cleaved
In the case of B4, the “stoichiometry N” value is reported as 2.

B5: TtCsm6 with Arg415 substituted by alanine (enzyme, Thermus thermophilus, UniProt Q53W17 1-464, looked up)
chain: B1 chain with R415A
notes: also called R415A; not shown: His6, N-terminal, cleaved
B5 was tested, and the “stoichiometry N” value was 2.
